Legend:
[1] = target: T1, Pyrococcus DNA polymerase with a sequence non-specific DNA binding domain (Pyrococcus); assay: cell-based or functional assay
T1 chain: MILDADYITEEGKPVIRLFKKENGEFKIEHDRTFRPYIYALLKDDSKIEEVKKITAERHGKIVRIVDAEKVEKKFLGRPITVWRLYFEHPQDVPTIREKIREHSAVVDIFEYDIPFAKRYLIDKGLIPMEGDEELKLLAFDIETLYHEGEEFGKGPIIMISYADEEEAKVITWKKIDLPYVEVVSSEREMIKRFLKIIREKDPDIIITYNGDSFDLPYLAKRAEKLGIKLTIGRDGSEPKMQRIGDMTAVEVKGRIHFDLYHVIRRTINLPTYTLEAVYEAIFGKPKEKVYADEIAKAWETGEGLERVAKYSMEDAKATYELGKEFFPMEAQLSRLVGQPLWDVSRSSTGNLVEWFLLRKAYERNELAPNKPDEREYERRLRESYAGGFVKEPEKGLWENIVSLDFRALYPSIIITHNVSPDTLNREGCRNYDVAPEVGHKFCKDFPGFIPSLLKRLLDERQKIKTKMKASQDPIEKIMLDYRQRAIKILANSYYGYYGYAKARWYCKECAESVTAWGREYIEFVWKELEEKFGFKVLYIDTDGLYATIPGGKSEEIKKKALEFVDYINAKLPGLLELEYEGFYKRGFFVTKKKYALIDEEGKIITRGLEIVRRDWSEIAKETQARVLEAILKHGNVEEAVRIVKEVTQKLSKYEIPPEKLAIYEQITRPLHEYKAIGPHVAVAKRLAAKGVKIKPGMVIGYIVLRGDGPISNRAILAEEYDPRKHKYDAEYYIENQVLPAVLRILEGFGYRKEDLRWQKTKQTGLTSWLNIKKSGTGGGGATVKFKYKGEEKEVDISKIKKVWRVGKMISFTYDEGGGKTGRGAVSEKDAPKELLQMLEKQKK

[2] = target: T1, Pyrococcus DNA polymerase with a …; assay: indirect ELISA, apparent dissociation constant
Description: The affinity of monoclonal antibodies was determined by measuring their apparent dissociation constants (kD) by an indirect ELISA (Table 2).

B1: 5D3 (antibody, V domains shown)
VH: SGPGLVAPSQSLSITCTVSGFSLTDYGVSWVRQSPGQGLEWLGIIWGDGSTDYHSSLISRLRISKDNSKSQVFLKLNSLQTDDTATYYCARPVIGNYAMDYWGQG
VL: TQSPASLAVSLGQRATISCRASESVEYYGTRLMQWYQQKPGKAPKLLIYGASNVESGVPARFSGSGSGTDFSLNIHPVEEDDFAMYFCQQSRKVPWTFGGG
notes: also called 5D3 antibody
Inhibition of exonuclease activity [1]: 71 molar ratio enzyme:antibody (1:x)
Inhibition of polymerase activity [1]: 20 molar ratio enzyme:antibody (1:x)
Kd [2]: 0.29 nM

— patent US20170204454A1 (THERMO FISHER SCIENTIFIC BALTICS UAB, published 2017)
